In the RNAGym collection of RNA variant scans (doi:10.1073/pnas.2313332121):
Variants at the floor of the assay were thinned out.

B1: TPR 5TU (parent)
chain: GGAUCUUCUCGAUCUAACAAAAAAGACAAAUCUGCCACAAAGCUUGAGAGCAUCUUCGGAUGCAGAGGCGGCAGCCUUCGGUGGCGCGAUAGCGCCAACGUUCUCAACUAUGACACGCAAAACGCGUGCUCCGUUGAAUGGAGUUUAUCAUG

Variants of: B1
Assay: polymerase ribozyme fitness, log enrichment relative to wild type (log ratio); higher = more active; in vitro selection for triplet polymerase activity
How it was run: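 A heterodimeric triplet polymerase ribozyme had each of its subunits mutagenized by PCR into a library, which was transcribed. One round of in vitro selection, done in triplicate, annealed each library with a biotinylated primer, its partner subunit and triplets, then incubated it frozen at −7 °C before gel excision of extended constructs, streptavidin-bead capture and RT-PCR. Fitness is the logarithm of genotype enrichment relative to wild-type enrichment, based on Illumina sequencing of inputs and outputs and inverse-variance-weighted replicate averages. A base-2 logarithm is used, and genotypes were kept only with ≥10 input reads and ≥1 read per output.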

Variant | polymerase ribozyme fitness (log ratio)
C27G C38U A49C G65C C87G C114A A119G U145A | -4.07
C27G A49C G50U C54U C87G | ≤ -4.2
C27G G71A A138C A142C | ≤ -4.2
C27U A138G | -3.72
C27G C43U C75G U78G C129G G143A | ≤ -4.2
C27G C93U U130G U151A | ≤ -4.2
C27G G92C A142U | ≤ -4.2
C27A A52G G128U C129U C131G A147U | ≤ -4.2
C27G C54A C93A A115U | ≤ -4.2
C27A G58A C76G C99U U101G | ≤ -4.2
C27G U53A U102A | ≤ -4.2
C27A C75U C93G A115U | ≤ -4.2
C27G C72A C96A A107U | ≤ -4.2
C27A G34U U53A G71C G88U C96U U144A U146A | ≤ -4.2
C27U A66G G88A G136A | ≤ -4.2
C27U C57A C95U | -2.1
C27G C38U A39G A73C G94U U146C G152U | ≤ -4.2
C27G A40U G58A A73C C76U C95G | ≤ -4.2
C27A G86U U144A | ≤ -4.2
C27G A106U | -3.92
C27A G86A G94A U102G C132U G133U U134A | ≤ -4.2

Variant | polymerase ribozyme fitness (log ratio)
C27U A29U U144C | ≤ -4.2
A26U U61A G71C C79U A98G U151A | ≤ -4.2
C27U A39C G50U C123A | ≤ -4.2
C27G C63A C85U C87A G136A A138C | ≤ -4.2
C27A C43A A52U U55A U56A G92U | ≤ -4.2
C27G G80A C114A C116U A142C | ≤ -4.2
C27U C54U G83U | -2.12
C27A A28G A40C A47C A73C U77C C99G | ≤ -4.2
C27G A37C U44A U45A C57U G68A G83A A119U A120U A147G | ≤ -4.2
C27U A37C A52C C87U G88C | ≤ -4.2
C27U A41G A47C U53A U78C C93A A110U | ≤ -4.2
C27U A49C A98G C99A C125U U148C | ≤ -4.2
A26U U33A A47G G62A G94U C105U A110U | ≤ -4.2
A26U U104C G126C U146A | -2.67
C27A U45G G46A A60U C95G G124U | ≤ -4.2
A26U U104C G124C | -3.3
C27A C35A G84U C103G | ≤ -4.2
C27G A41C C54G C87G C114G C125A | ≤ -4.2
C27U A41C A52C C54G C95G U102A | ≤ -4.2
C27A G117A | -3.86
A26U G141U | -1.94

Variant | polymerase ribozyme fitness (log ratio)
C27G A37C A47C C87G A115C | ≤ -4.2
C27A A39G U53C C95A A121U G136C | ≤ -4.2
C27U A91G A147C G152U | ≤ -4.2
C27A C85U C96A C114U A119G G140C | -4.07
C27G A39U G74A C87G U102G | ≤ -4.2
C27G A39C G59C C85G C105G | ≤ -4.2
A26U U45A G83U G92C A122U | ≤ -4.2
C27U A47C U56G C76U U78A G94A A97U C118U | ≤ -4.2
C27A U33G A39G A60C C93U U127C G140A | -4.14
C27A C38G C43U C85U G133A U144C | ≤ -4.2
A26U U56A | -2.17
A26U U44A G58A C87U A107G C123G G141C | -3.93
C27U C32G C36U C87G | ≤ -4.2
C27U A47C | -1.01
C27G C96U A106G | -4
C27U C36A C108G U139G U145C | -3.87
C27G A28G C69G C93G C95U | ≤ -4.2
A26U G92C | -3.52
A26U U148A | -4.11
C27A A37U G42C A106C C116G A121G G128A U145G | ≤ -4.2
C27A A49U C87A U134C G141A | ≤ -4.2

Variant | polymerase ribozyme fitness (log ratio)
C27A G71U | ≤ -4.2
C27A C79A G84A G86U | ≤ -4.2
C27G A40C G48A C63A G70U G81A G92A | ≤ -4.2
C27U A37U C99G | -3.64
C27U A47G A52C G83A U146G | -3.62
C27U A37C G59U U61A C63U A64C G92U | ≤ -4.2
C27G G48C G80A G81A A113G C118A C132U G136C A150G | ≤ -4.2
C27A U55G A66U C72U U78G C79U A91C C105U | ≤ -4.2
C27A A47U A106U U145A | ≤ -4.2
C27A G46A U53A U56G A91C A106C A110G A138G | ≤ -4.2
C27U A52C A60U C76U G84U C96G U109C | ≤ -4.2
C27A G59A C85U U134A | ≤ -4.2
C27A U33C C85A A106G U144A U151C | ≤ -4.2
C27G G58A C93A C95G | ≤ -4.2
C27A U33C G88C G141C | ≤ -4.2
C27G A28C G48A U55A G68C C87U C108G | ≤ -4.2
C27U A40U G58C G59U G92U | -2.23
C27G A37G C72A C105A | -4.13
C27G C72U G83U A91U C93U | ≤ -4.2
C27U C35A G133U C149G | ≤ -4.2
A26U U78A C96A C116U U146C | ≤ -4.2
